Reference: the supplement of paper PMC9112550, “Optimization of the antimicrobial peptide Bac7 by deep mutational scanning” (BMC Biology, 2022)

tested on: Escherichia coli TOP10; assay: shrunken log2 fold change of peptide-encoding DNA abundance (4.5 h post-induction vs induction); higher = less antimicrobial activity (less host growth inhibition); details: time post-induction: 4.5 h; library: site-saturation at positions 5, 18, 19, 20
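Also: peptides expressed intracellularly from a pBAD plasmid library in pooled LB shake-flask culture, induced with 0.3% L-arabinose, DNA abundance read by NGS, three biological replicates, DESeq2 with apeglm shrinkage.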

Row | Sequence | shrunken log2 fold change
1 | RRIRRRPPRLPRPRPRPTCAPRP | 0.502
2 | RRIRERPPRLPRPRPRPKMQPRP | -0.0537
3 | RRIRLRPPRLPRPRPRPVTIPRP | 0.0221
4 | RRIRQRPPRLPRPRPRPCIDPRP | -0.424
5 | RRIRCRPPRLPRPRPRPQCRPRP | -0.421
6 | RRIRQRPPRLPRPRPRPNKAPRP | -0.041
7 | RRIRDRPPRLPRPRPRPYWRPRP | -0.0818
8 | RRIRCRPPRLPRPRPRPKPVPRP | 0.179
9 | RRIRRRPPRLPRPRPRPSWIPRP | -0.284
10 | RRIRSRPPRLPRPRPRPRVFPRP | 0.151
11 | RRIRHRPPRLPRPRPRPCSIPRP | -0.0189
12 | RRIRRRPPRLPRPRPRPLQWPRP | 0.292
13 | RRIRMRPPRLPRPRPRPNHYPRP | -0.352
14 | RRIRMRPPRLPRPRPRPQNGPRP | 0.0258
15 | RRIRFRPPRLPRPRPRPKWYPRP | -0.388
16 | RRIRYRPPRLPRPRPRPPPWPRP | 0.358
17 | RRIRARPPRLPRPRPRPDCSPRP | 0.958
18 | RRIRLRPPRLPRPRPRPTHVPRP | 0.329
19 | RRIRQRPPRLPRPRPRPRDFPRP | 0.984
20 | RRIRSRPPRLPRPRPRPVECPRP | -0.0425
21 | RRIRCRPPRLPRPRPRPWLEPRP | 0.117
22 | RRIRTRPPRLPRPRPRPVKKPRP | 0.0316
23 | RRIRTRPPRLPRPRPRPMMWPRP | 0.00735
24 | RRIRMRPPRLPRPRPRPRDWPRP | 1.31
25 | RRIRERPPRLPRPRPRPIDIPRP | -0.01

Row | Sequence | shrunken log2 fold change
26 | RRIRKRPPRLPRPRPRPVRNPRP | 0.308
27 | RRIRLRPPRLPRPRPRPDNTPRP | -0.386
28 | RRIRPRPPRLPRPRPRPHHTPRP | -0.617
29 | RRIRERPPRLPRPRPRPVGTPRP | 0.0306
30 | RRIRGRPPRLPRPRPRPPVMPRP | 0.333
31 | RRIRDRPPRLPRPRPRPCEPPRP | 0.194
32 | RRIRMRPPRLPRPRPRPANVPRP | -0.0273
33 | RRIRERPPRLPRPRPRPGRAPRP | 0.367
34 | RRIRIRPPRLPRPRPRPRNFPRP | -0.283
35 | RRIRGRPPRLPRPRPRPKFHPRP | 0.199
36 | RRIRYRPPRLPRPRPRPASHPRP | -1
37 | RRIRWRPPRLPRPRPRPDQMPRP | 0.128
38 | RRIRGRPPRLPRPRPRPVPQPRP | 0.618
39 | RRIRRRPPRLPRPRPRPDCYPRP | -0.236
40 | RRIRTRPPRLPRPRPRPYVKPRP | -0.221
41 | RRIRRRPPRLPRPRPRPITFPRP | 0.058
42 | RRIRARPPRLPRPRPRPIQMPRP | 0.0579
43 | RRIRPRPPRLPRPRPRPGASPRP | 0.344
44 | RRIRHRPPRLPRPRPRPQCWPRP | -0.112
45 | RRIRERPPRLPRPRPRPSNAPRP | -0.086
46 | RRIRQRPPRLPRPRPRPITPPRP | -0.0347
47 | RRIRDRPPRLPRPRPRPVMDPRP | 0.114
48 | RRIRYRPPRLPRPRPRPGFQPRP | -1.11
49 | RRIRNRPPRLPRPRPRPHNLPRP | -0.272
50 | RRIRYRPPRLPRPRPRPCFWPRP | -0.136

Row | Sequence | shrunken log2 fold change
51 | RRIRKRPPRLPRPRPRPMGGPRP | 0.0559
52 | RRIRKRPPRLPRPRPRPAIMPRP | 0.418
53 | RRIRRRPPRLPRPRPRPDGDPRP | 0.485
54 | RRIRLRPPRLPRPRPRPGVGPRP | 0.537
55 | RRIRTRPPRLPRPRPRPGRGPRP | 0.605
56 | RRIRFRPPRLPRPRPRPDFYPRP | -0.105
57 | RRIRCRPPRLPRPRPRPEASPRP | 0.14
58 | RRIRPRPPRLPRPRPRPWQKPRP | -0.179
59 | RRIRKRPPRLPRPRPRPRLQPRP | 0.475
60 | RRIRDRPPRLPRPRPRPQMRPRP | -0.0122
61 | RRIRKRPPRLPRPRPRPKSWPRP | 0.308
62 | RRIRFRPPRLPRPRPRPMEKPRP | 0.273
63 | RRIRCRPPRLPRPRPRPWRKPRP | 0.119
64 | RRIRHRPPRLPRPRPRPFRLPRP | -0.322
65 | RRIRYRPPRLPRPRPRPGSMPRP | -0.182
66 | RRIRCRPPRLPRPRPRPTTWPRP | -0.125
67 | RRIRCRPPRLPRPRPRPFFTPRP | -0.0887
68 | RRIRWRPPRLPRPRPRPGRVPRP | 0.37
69 | RRIRERPPRLPRPRPRPTTTPRP | -0.0224
70 | RRIRERPPRLPRPRPRPYNQPRP | -0.0858
71 | RRIRVRPPRLPRPRPRPIMCPRP | 0.0128
72 | RRIRIRPPRLPRPRPRPHADPRP | -0.178
73 | RRIRERPPRLPRPRPRPRFDPRP | 1.26
74 | RRIRTRPPRLPRPRPRPRMLPRP | 0.292
75 | RRIRTRPPRLPRPRPRPYTMPRP | -0.232

Row | Sequence | shrunken log2 fold change
76 | RRIRWRPPRLPRPRPRPILWPRP | 0.117
77 | RRIRRRPPRLPRPRPRPVPLPRP | 0.385
78 | RRIRARPPRLPRPRPRPYWDPRP | -0.964
79 | RRIRWRPPRLPRPRPRPANTPRP | -0.0364
80 | RRIRFRPPRLPRPRPRPIWTPRP | -0.0298
81 | RRIRPRPPRLPRPRPRPIRLPRP | 0.0338
82 | RRIRWRPPRLPRPRPRPQPCPRP | 0.179
83 | RRIRYRPPRLPRPRPRPTQNPRP | 0.298
84 | RRIRERPPRLPRPRPRPPPIPRP | 0.267
85 | RRIRNRPPRLPRPRPRPYHYPRP | -0.722
86 | RRIRERPPRLPRPRPRPVPNPRP | -0.14
87 | RRIRCRPPRLPRPRPRPTAIPRP | -0.273
88 | RRIRLRPPRLPRPRPRPYKDPRP | -0.269
89 | RRIRKRPPRLPRPRPRPHNTPRP | -0.152
90 | RRIRLRPPRLPRPRPRPWQHPRP | -0.319
91 | RRIRCRPPRLPRPRPRPTPGPRP | 0.589
92 | RRIRERPPRLPRPRPRPAFKPRP | 0.106
93 | RRIRKRPPRLPRPRPRPPDHPRP | 0.973
94 | RRIRTRPPRLPRPRPRPFRSPRP | -0.144
95 | RRIRYRPPRLPRPRPRPGGGPRP | 0.64
96 | RRIRWRPPRLPRPRPRPGGKPRP | 0.227
97 | RRIRVRPPRLPRPRPRPIKDPRP | 0.0334
98 | RRIRFRPPRLPRPRPRPITPPRP | -0.128
99 | RRIRVRPPRLPRPRPRPQRPPRP | 0.306
100 | RRIRTRPPRLPRPRPRPMGNPRP | -0.0115

Row | Sequence | shrunken log2 fold change
101 | RRIRARPPRLPRPRPRPQIQPRP | 0.503
102 | RRIRHRPPRLPRPRPRPLDEPRP | -0.0217
103 | RRIRPRPPRLPRPRPRPPAMPRP | 0.447
104 | RRIRWRPPRLPRPRPRPVHRPRP | 0.181
105 | RRIRVRPPRLPRPRPRPHCEPRP | -0.0141
106 | RRIRNRPPRLPRPRPRPYYAPRP | -0.0919
107 | RRIRSRPPRLPRPRPRPQYQPRP | -0.136
108 | RRIRMRPPRLPRPRPRPAQLPRP | 0.101
109 | RRIRARPPRLPRPRPRPLCWPRP | 0.43
110 | RRIRPRPPRLPRPRPRPTQAPRP | 0.0364
111 | RRIRERPPRLPRPRPRPWKPPRP | -0.00455
112 | RRIRYRPPRLPRPRPRPPKAPRP | -0.0334
113 | RRIRTRPPRLPRPRPRPGEHPRP | -0.187
114 | RRIRFRPPRLPRPRPRPWWRPRP | -0.471
115 | RRIRKRPPRLPRPRPRPVIHPRP | -0.0677
116 | RRIRFRPPRLPRPRPRPWGLPRP | -0.168
117 | RRIRLRPPRLPRPRPRPRQKPRP | 0.154
118 | RRIRDRPPRLPRPRPRPFLGPRP | -0.0161
119 | RRIRPRPPRLPRPRPRPQGSPRP | 0.0552
120 | RRIRIRPPRLPRPRPRPYQPPRP | 0.0299
121 | RRIRPRPPRLPRPRPRPLAAPRP | 0.767
122 | RRIRLRPPRLPRPRPRPYIKPRP | -0.882
123 | RRIRGRPPRLPRPRPRPRPEPRP | 0.667
124 | RRIRGRPPRLPRPRPRPEIHPRP | 1.13
125 | RRIRGRPPRLPRPRPRPHANPRP | 0.361

Row | Sequence | shrunken log2 fold change
126 | RRIRYRPPRLPRPRPRPCSTPRP | -0.212
127 | RRIRLRPPRLPRPRPRPLACPRP | -0.454
128 | RRIRKRPPRLPRPRPRPFKLPRP | 0.0306
129 | RRIRDRPPRLPRPRPRPEPHPRP | 0.533
130 | RRIRDRPPRLPRPRPRPVQGPRP | -0.01
131 | RRIRIRPPRLPRPRPRPDYRPRP | 0.0581
132 | RRIRFRPPRLPRPRPRPKEFPRP | -0.0812
133 | RRIRARPPRLPRPRPRPILVPRP | -0.122
134 | RRIRDRPPRLPRPRPRPTGQPRP | -0.0665
135 | RRIRERPPRLPRPRPRPFRWPRP | 0.0329
136 | RRIRPRPPRLPRPRPRPHPWPRP | 0.0817
137 | RRIRRRPPRLPRPRPRPIMNPRP | -0.347
138 | RRIRFRPPRLPRPRPRPYRKPRP | -0.186
139 | RRIRERPPRLPRPRPRPALCPRP | 0.0446
140 | RRIRWRPPRLPRPRPRPRGSPRP | 0.495
141 | RRIRSRPPRLPRPRPRPGVFPRP | 0.146
142 | RRIRYRPPRLPRPRPRPKDIPRP | -0.109
143 | RRIRPRPPRLPRPRPRPKQWPRP | -0.22
144 | RRIRDRPPRLPRPRPRPWHPPRP | -0.0206
145 | RRIRHRPPRLPRPRPRPVFYPRP | -0.751
146 | RRIRLRPPRLPRPRPRPVQHPRP | -0.0767
147 | RRIRVRPPRLPRPRPRPYLFPRP | 0.0655
148 | RRIRNRPPRLPRPRPRPIRAPRP | -0.0265
149 | RRIRMRPPRLPRPRPRPHLTPRP | -0.0375
150 | RRIRPRPPRLPRPRPRPFEEPRP | -0.00852
